Tests used:
[1] = target: NRPS N-(5-amino-5-carboxypentanoyl)-L-cysteinyl-D-valine synthase PcbAB (Penicillium chrysogenum)
[2] = target: NRPS Pc21g12630 protein ChyA (Penicillium chrysogenum)
[3] = target: NRPS Roquefortine/meleagrin synthesis protein A RoqA (Penicillium chrysogenum)

Sequence of MbtH-like protein Tcp13 from the teicoplanin biosynthesis cluster from Actinoplanes teichomyceticus (chain): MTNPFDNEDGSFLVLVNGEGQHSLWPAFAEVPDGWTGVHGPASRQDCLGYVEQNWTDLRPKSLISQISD
Sequence of MbtH-like homologue identified in the Veg biosynthesis cluster obtainable from an uncultured soil bacterium, called VEG8 (chain): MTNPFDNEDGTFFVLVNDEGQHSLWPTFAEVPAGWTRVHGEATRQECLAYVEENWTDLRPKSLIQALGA

Substance: MbtH-like homologue identified in the Teg biosynthesis cluster obtainable from an uncultured soil bacterium, called TEG
- relative productivity of LLD-ACV (penicillin cluster), day 5, strain DS47274, transformant 11-5, LC/MS, untransformed strain set to 1.0 (fold of the untransformed strain (1.0)) [1]: 10.9
- relative productivity of Chrysogenin 12 (chrysogenin cluster), day 5, strain DS47274, transformant 11-5, LC/MS, untransformed strain set to 1.0 (fold of the untransformed strain (1.0)) [2]: 266
- relative productivity of HTD (roquefortine cluster), day 2, strain DS47274, transformant 11-5, LC/MS, untransformed strain set to 1.0 (fold of the untransformed strain (1.0)) [3]: 9.35

Substance: MbtH-like homologue identified in the Veg biosynthesis cluster obtainable from an uncultured soil bacterium, called VEG8
- relative productivity of LLD-ACV (penicillin cluster), day 5, strain DS47274, transformant 12-4, LC/MS, untransformed strain set to 1.0 (fold of the untransformed strain (1.0)) [1]: 2.32
- relative productivity of Chrysogenin 12 (chrysogenin cluster), day 5, strain DS47274, transformant 12-4, LC/MS, untransformed strain set to 1.0 (fold of the untransformed strain (1.0)) [2]: 189
- relative productivity of HTD (roquefortine cluster), day 2, strain DS47274, transformant 12-4, LC/MS, untransformed strain set to 1.0 (fold of the untransformed strain (1.0)) [3]: 2.9

Substance: MbtH-like protein Tcp13 from the teicoplanin biosynthesis cluster from Actinoplanes teichomyceticus
- relative productivity of LLD-ACV (penicillin cluster), day 5, strain DS47274, transformant 10-2, LC/MS, untransformed strain set to 1.0 (fold of the untransformed strain (1.0)) [1]: 16.1
- relative productivity of Chrysogenin 12 (chrysogenin cluster), day 5, strain DS47274, transformant 10-5, LC/MS, untransformed strain set to 1.0 (fold of the untransformed strain (1.0)) [2]: 465
- relative productivity of HTD (roquefortine cluster), day 2, strain DS47274, transformant 10-2, LC/MS, untransformed strain set to 1.0 (fold of the untransformed strain (1.0)) [3]: 2.64

Substance: MbtH-like homologue from the complestatine biosynthesis cluster from Streptomyces lavendulae, called COM
- relative productivity of LLD-ACV (penicillin cluster), day 5, strain DS47274, transformant 7-3, LC/MS, untransformed strain set to 1.0 (fold of the untransformed strain (1.0)) [1]: 22.7
- relative productivity of Chrysogenin 12 (chrysogenin cluster), day 5, strain DS47274, transformant 7-3, LC/MS, untransformed strain set to 1.0 (fold of the untransformed strain (1.0)) [2]: 317
- relative productivity of HTD (roquefortine cluster), day 2, strain DS47274, transformant 8-4, LC/MS, untransformed strain set to 1.0 (fold of the untransformed strain (1.0)) [3]: 2.32

Substance: MbtH-like homologue SCO0489 from the calcium dependent antibiotic (CDA) biosynthesis cluster from Streptomyces coelicolor, called CDAI
- relative productivity of LLD-ACV (penicillin cluster), day 5, strain DS47274, transformant 9-5, LC/MS, untransformed strain set to 1.0 (fold of the untransformed strain (1.0)) [1]: 12.5
- relative productivity of Chrysogenin 12 (chrysogenin cluster), day 5, strain DS47274, transformant 9-4, LC/MS, untransformed strain set to 1.0 (fold of the untransformed strain (1.0)) [2]: 413
- relative productivity of HTD (roquefortine cluster), day 2, strain DS47274, transformant 9-5, LC/MS, untransformed strain set to 1.0 (fold of the untransformed strain (1.0)) [3]: 4.48
